In the FLAb antibody collection (doi:10.7554/elife.23156):

B1: scFv; the commonest letter at each place (parent)
chain 1: EVKLDETGGGLVQPGRPMKLSCVASGFTFSDYWMNWVRQSPEKGLEWVAQIRNKPYNYETYYSDSVKGRFTISRDDSKSSVYLQMNNLRVEDMGIYYCTGSYYGMDYWGQGTSVTVS
chain 2: DVVMTQTPLSLPVSLGDQASISCRSSQSLVHSNGNTYLRWYLQKPGQSPKVLIYKVSNRFSGVPDRFSGSGSGTDFTLKISRVEAEDLGVYFCSQSTHVPWTFGGGTKLEIK

Legend:
fluorescein = variants of: B1; test: Kd (Tite-Seq); conditions: with fluorescein; format: scFv 4-4-20, heavy + light
[1] = variants of: B1; test: yeast surface expression (ratio to wild type); higher = more expressed; conditions: format: scFv 4-4-20, heavy + light

Kd (fluorescein) [µM] | Variant | yeast surface expression [1]
≥ 10 | chain 1 EVKLDETGGGLVQPGRPMKLSCVASGFTFSDYWMNWVRQSPEKGLEWVAQIRNKPYNYETYYSDSVKGRFTISRDDSKSSVYLQMNNLRVEDMGIYYCTGSYYEVDYWGQGTSVTVS chain 2 DVVMTQTPLSLPVSLGDQASISCRSSQSLVHSNGNTYLRWYLQKPGQSPKVLIYKVSNRFSGVPDRFSGSGSGTDFTLKISRVEAEDLGVYFCSQSTHVPWTFGGGTKLEIK [chain 1 G104E M105V] | 0.886
≥ 10 | chain 1 EVKLDETGGGLVQPGRPMKLSCVASGFTFSDYWMNWVRQSPEKGLEWVAQIRNKPYNYETYYSDSVKGRFTISRDDSKSSVYLQMNNLRVEDMGIYYCTGSYYEMDYWCQGTSVTVS chain 2 DVVMTQTPLSLPVSLGDQASISCRSSQSLVHSNGNTYLRWYLQKPGQSPKVLIYKVSNRFSGVPDRFSGSGSGTDFTLKISRVEAEDLGVYFCSQSTHVPWTFGGGTKLEIK [chain 1 G104E G109C] | 0.21
≥ 10 | chain 1 EVKLDETGGGLVQPGRPMKLSCVASGFTFSDYWMNWVRQSPEKGLEWVAQIRNKPYNYETYYSDSVKGRFTISRDDSKSSVYLQMNNLRVEDMGIYYCTGSYYEMDYWYQGTSVTVS chain 2 DVVMTQTPLSLPVSLGDQASISCRSSQSLVHSNGNTYLRWYLQKPGQSPKVLIYKVSNRFSGVPDRFSGSGSGTDFTLKISRVEAEDLGVYFCSQSTHVPWTFGGGTKLEIK [chain 1 G104E G109Y] | 0.384
≥ 10 | chain 1 EVKLDETGGGLVQPGRPMKLSCVASGFTFSDYWMNWVRQSPEKGLEWVAQIRNKPYNYETYYSDSVKGRFTISRDDSKSSVYLQMNNLRVEDMGIYYCTGSYYEMAYWGQGTSVTVS chain 2 DVVMTQTPLSLPVSLGDQASISCRSSQSLVHSNGNTYLRWYLQKPGQSPKVLIYKVSNRFSGVPDRFSGSGSGTDFTLKISRVEAEDLGVYFCSQSTHVPWTFGGGTKLEIK [chain 1 G104E D106A] | 0.657
≥ 10 | chain 1 EVKLDETGGGLVQPGRPMKLSCVASGFTFSDYWMNWVRQSPEKGLEWVAQIRNKPYNYETYYSDSVKGRFTISRDDSKSSVYLQMNNLRVEDMGIYYCTGSYYDMDLWGQGTSVTVS chain 2 DVVMTQTPLSLPVSLGDQASISCRSSQSLVHSNGNTYLRWYLQKPGQSPKVLIYKVSNRFSGVPDRFSGSGSGTDFTLKISRVEAEDLGVYFCSQSTHVPWTFGGGTKLEIK [chain 1 G104D Y107L] | 1.18
≥ 10 | chain 1 EVKLDETGGGLVQPGRPMKLSCVASGFTFSDYWMNWVRQSPEKGLEWVAQIRNKPYNYETYYSDSVKGRFTISRDDSKSSVYLQMNNLRVEDMGIYYCTGSYYEMDYWGQGTSVTVS chain 2 DVVMTQTPLSLPVSLGDQASISCRSSQSLVHSNGNTYLRWYLQKPGQSPKVLIYKVSNRFSGVPDRFSGSGSGTDFTLKISRVEAEDLGVYFCSQSTHVPWTFGGGTKLEIK [chain 1 G104E] | 1.04
